Experimental data from the DeepSol protein solubility set.

test: soluble on expression in E. coli; label from the status in PepcDB or PDB records

Sequence | soluble on expression in E. coli
MSLSMSKRLLLFDFDETYFKHNTNEEDLSHLREMEKLLEKLTNNNEVMTAVLTGSTFQSVMDKMDQVNMTFKPLHIFSDLSSKMFTWNNGEYIESETYKKKVFSEPFLFEDIEDILRHISAQYNVEFIPQRAFEGNETHYNFYFHSTGNHSNDRRILEALVRYANDQNYTARFSRSNPLAGDPENAYDIDFTPSNAGKLYATQFLMKKYNIPVKSILGFGDSGNDEAYLSYLEHAYLMSNSRDEALKQKFRLTKYPYYQGITLHVKEFVEGKYDYEGHHHHHH | soluble
MKLRTKIKRVRDVELPKYAKTGDSGFDLVAAEDTVIWPGETKVVPTGLAFEIPPGYELQVRPRSGMTRNTKLRVVLGTVDSGYRGEVGVLVDNTEIPKATNMQAHVIEKGTRIAQGVIVPVITAHFEEVDELSDSERGSGGFGSTGVK | not soluble
MSKSWGKFIEEEEAEMASRRNLMIVDGTNLGFRFKHNNSKKPFASSYVSTIQSLAKSYSARTTIVLGDKGKSVFRLEHLPEYAGNRDEKYAQRTEEEKALDEQFFEYLKDAFELCKTTFPTFTIRGVEADDMAAYIVKLIGHLYDHVWLISTDGDWDTLLTDKVSRFSFTTRREYHLRDMYEHHNVDDVEQFISLKAIMGDLGDNIRGVEGIGAKRGYNIIREFGNVLDIIDQLPLPGKQKYIQNLNASEELLFRNLILVDLPTYCVDAIAAVGQDVLDKFTKDILEIAEQ | soluble
MHVSPFDWRYGSEEIRRLFTNEAIINAYLEVERALVCALEELGVAERGCCEKVNKASVSADEVYRLERETGHDILSLVLLLEQKSGCRYVHYGATSNDIIDTAWALLIRRALAAVKEKARAVGDQLASMARKYKTLEMVGRTHGQWAEPITLGFKFANYYYELYIACRQLALAEEFIRAKIGGAVGTMASWGELGLEVRRRVAERLGLPHHVITTQVAPRESFAVLASALALMAAVFERLAVEIRELSRPEIGEVVEGGGGSSAMPHKANPTASERIVSLARYVRALTHVAFENVALWHERDLTNSANERVWIPEALLALDEILTSALRVLKNVYIDEERITENLQKALPYILTEFHMNRMIKEGASRAEAYKKAKEVKALTFEYQKWPVERLIEDALSLKLC | soluble
MAHHHHHHMSGAFGCGSYRSVVAGTQNVPRRMTFYPSAYELIQLHKAHREVIRHFYVRDKIFDNKFPGNALANGLFKFVPNRRENYHMRELMESIRRRSIWMHRIKQQREINAKVVENMEVKYGKKAAASMLCFTTPDSNAYFAPHRYQDVANSWPNYWQHPSVNHVVPKPRWRRHRELGGITRVEDPFAVQASDY | not soluble
MNDMRQITNLGRNIENKSFSIIDEEAGPHSFAQEEWEVVRRIIHATADFDYKNITKIHPQAIDSGIQALKKGCPIVCDVQMILSGLNPERLKVYGCKTYCFISDEDVIENAKRKNSTRAIESIQKANSFNLLNESIIVIGNAPTALLEIEKLIRQEGIKPALIVGVPVGFVSAKESKESILKLEYYNVTSIPYILTMGRKGGSTIAVAILHALLLLSSKRGERLEHHHHHH | soluble
GMPPVWTLPRLYQHFQGAIDLELWTIPYYLTVLYSIKDPTTVPYRLIQAAVYQEMLHAQLVSNIANAYGYSPTLSAPEYVGTAVPHIDFDLDTPNPTSIFTPYSAELGPLDLTRVNTMCLIEYPEWRTQREPDLADDVTDYGSIGEFYDALRVGMEQLRGHVRGNQKQMDEFGPFYQNSPPLTVTESGDAGFLQALTLVDIIVDQGEGQTQPVETIPTEFQNTADGFQDAWPHFQRFDFIRRMPNWPGVYTGVTDPPAGSPGAEAQARLIADFAGFLDILNGMFSGGGAPPAFGVQMAKLGGDILSCWKLGAVPRYS | soluble
MGHHHHHHSHMRKNESYLNQPAPPIPIPTLSLMGGCREHFENHWKGRARWLMPVIPALWEAKAGRSPEVRSSKPAWPTWRNPIFTKNTKISQVLELFLNYQSLICALEKQKRQKGSLAIFCWSFQGGCVSKRPDVPSLKSQKPKRKRITGRKRLSKGSWSLLFSNLGRF | soluble
MPYQQITVNVNDAVAERLADALMEHGALSAAIEDAYAGTQNEQAIFGEPGMPAEQIWQQSKVIALFGEHDEAAAIIQTATQECGLK | not soluble
GSMLISHSDMNQQLKSAGIGFNATELHGFLSGLLCGGLKDQSWLPLLYQFSNDNHAYPTGLVQPVTELYEQISQTLSDVEGFTFELGLTEDENVFTQADSLSDWANQFLLGIGLAQPELAKEKGEIGEAVDDLQDICQLGYDEDDNEEELAEALEEIIEYVRTIAMLFYSHFNEGEIESKPVLH | soluble
MGGWMSCAPPIYTPHTNSWTESGWDRTSWWRWSAQRWSGWSFKIVRANKALRVMAKTKMPLVLIPPSPNKPYSKLAINQELHLTPHKKTSPATSSSLKPRPGPRGYLNARLSWRCPTLSRKVRVPTIKVPMVRAPSTKPSKTSSSNNPWPLTPRMRG | soluble
MANVVAEGAYPYCRLTDQPLSVDEVLAAVSGPEQGGIVIFVGNVRDHNAGHDVTRLFYEAYPPMVIRTLMSIIGRCEDKAEGVRVAVAHRTGELQIGDAAVVIGASAPHRAEAFDAARMCIELLKQEVPIWKKEFSSTGAEWVGDRP | soluble
MVYKPLEASDRTELRALQSDRLQRIVTHAHENVPFYREKLDAAGVSPEDIQSIDDITKLPMTTKEDFRDEYPDGLFAVDDEEVARIHASSGTTGKPKIVSYTDDDLDTWSEVVARSLAASGTEAGDTVQNAYGYGLFTGGLGIHYGTEELGASVVPIGSGQTQRQVELMTDLESDVFTCTPSYALYLAETAEEMGHDPRDLPISTIIFGAEPCTDPMREEIEERLGVDGIDIYGLSEIIGPGVSCECHEAKDGLHIWEDHFYPEVIDPHTKEPVEEGEEGELVLTTLTKEALPVFRYRTGDLTTLNYDECACGRTMVRMDNVTGRTDDLLIVRGVNLYPSEIEHAVLDIDGVAPHYRIDLYKEDNLDILELTIERTAEQGPGDKALEDEIIERLENVLAFTPDELELVAPGSIERTQVGKVKRVYDHRD | not soluble
MSLTELSAFPITRKWPAKHPERLQLYSLPTPNGVKVSIMLEEIGLAYEAHKVSFDNDDQLSPEFISLSANNKIPAILDPNGPGGQPLALFESGAILQYLAEKSGQLLSQDPAQRYQTLQWLMFQMGGIGPMFGQVGFFHFFAGKEYEDKRPRDRYVNESKRLLGVLDRHLKGRQWMAEEYSIADIAIFPWVRNLVERYNARDLVGFDQFKEVQRVLANFLERPAVQRGLKIPGEGHHHHHH | soluble
MSLKILVIGGTGNIGLPLIQYLDQQVGVQVVAGAHNLHKDEQLLATYPDVEIRRFDFLDETTFDAALRGIQKVFFVRPPQLAKPKQDMWPFLKCLQAHHIEQVVFVSLMGVEHNPMTPHHQIEQMIEQLQLPYTFIRPSFFMQNLNTTHRVDIQQNHDLFIPAGRSKTSFIDTRDIGEIAGVALLDTQYLQQKLTVTGPEALTYQQIAALMTESFGHPVTYHRPSLWRFRRVMLKRGIKKDYVNVMVMLYLITQLGNAKRVTDTAEKVLGHAPHTMTTYLRDYADQLQEGHHHHHH | not soluble
PMILGYWNVRGLTHPIRLLLEYTDSSYEEKRYAMGDAPDYDRSQWLNEKFKLGLDFPNLPYLIDGSRKITQSNAIMRYLARKHHLCGETEEERIRVDVLENQAMDTRLQLAMVCYSPDFERKKPEYLEGLPEKMKLYSEFLGKQPWFAGNKITYVDFLVYDVLDQHRIFEPKCLDAFPNLKDFVARFEGLKKISDYMKSGRFLSKPIFAKMAFWNPK | soluble
MHATDQTFQILLSQLLEKVEDRCPECGSEQYVWQQKNKDGTERCAPTCWSCGYKMLKKHEQQANQQRSQESFMARTQKFFHQGSLIADDALRQCRLTNYQTTELETRQAKERALAAVSAIVEGKPIHVIFSGKPGVGKSHLAISILVEVLERSAYQKYCLFVSYSELLEKLKMSMNESAKSQAKAQAYITRMKKADVLVLDDLGAELGIKNKVSTDFNNDILNRILEARQNKATIFTTNFSGKQLVEAYGTRIISRLMKHANGYVFQYKDTTDKRMRSVKLEHHHHHH | not soluble
MADINPNHTIYVNNLNEKVKKDELKRSLHMVFTQFGEIIQLMSFRKEKMRGQAHIVFKEVSSASNALRALQGFPFYGKPMRIQYAREDSDVISRAKGTFVEKRQKSTKIAKKPYEKPAKNGKSAAEPTQKEPQETDGPGLPNNILFCSNIPEGTEPEQIQTIFSQFPGLREVRWMPNTKDFAFIEYESEDLSEPARQALDNFRITPTQQITVKFASK | not soluble
MTQTASLFLQDSYREECLARITDVVEDGLLLDQTVFYPQGGGQAGDSGWLTLADGTRLRIADTRKGTEAGAGRDAILHIPAEGQATVLRAMKPGEVVLAQIDWVRRYRHMRLHTAAHMLCAVLPYPVNGCSITDEHARLDFVTSEPLSREAIDSALAAMVEAAHPVSIDTMSDDALRARPDLVRTMSVQPPMGAGQVRLVSIKDTDLQPCGGTHVANTEEVGVVRVSKMEKKSARTRRVVLVLG | not soluble
MQQPINYIMNIMHLERDLKRLTSNWSSATGLSLNELRILVYVEQHPGIQIGDVANALNVAKASLAQNIGTLITQGWLKSQPIKQDRRLRVLTLTKAGQDRMKDVDAQLTKSLDTTPATQLADQLSALQL | not soluble
MDNSSQSKPSSSSSSHSPSPAAITPTQRTTRDSGLCSTIDIPEIQAQCIDNLNSHYLGKGTYGLVEKTRYRKTRQDDFRPAAIKYSSQLHMATLIREAKVMWDLRNHPNIIKIYGLYKSPRNGQGVVMEYMDCGSMADLLYDRTHINYTIDHVASWMFQLSSAVDFFHSNSQVHRDLKLQNMLLSDRYRTMKLCDFGTFTSMHQSMTSNRGTPITMAPEVFRCEQYNMKSDIYSIGIIMWQIIARNHPYRRDLSVPGLLYNVATANLRPQELECNPILSEFYKKCWNDNADIRPTSSECVEYFTLLKDEYPNGSVPLSDSSTNGPAETPPPHAHRPTMLGTSSGSGIGSNNRTPTASKLLNPQQPGQGHRRNRSETFVVQPDLPYPTVPGEAGASRIPKSQSEAKNFRDRAKSEQRQPHRDARPPPPFEHRRDSNDEEKHAVFMNICSNEETRPIDPDTRDEKSLEIFHQHCDNNKQYADAWVIKKEVMRAKHELIAQWPQHDHTVELLERKYYLEQEIARYRDIQDDNYFSTERM | not soluble
MLNPDELVAIDIHTHAEEPCGCHADDGYDDFQARMAEYFGSPNKHPPTVPETAAYYRAKKIAAVIFPVDAERETGFRRYNNDEMIEITRQNSDVLIPFASIDPHKGKIGVREARRLIADYGIKGFKFHPTMQGFYANDRLAYPLYEAIQEGGAIALFHTGQTGVGSGMPGGMGMRLKYSNPMYMDDVAADFPDMKIVLAHPSFPWQEEALSVATHKPNVYIDLSGWSPKYFPPILVRYINSILQDKMLFGSDWPVITPDRWLSDFAKLEIREEVRAKVLKQNARKLLGIAAALEHHHHHH | not soluble
ATVKQPSIGRYTGKPNPSTGKYTVSFIEGDGIGPEISKSVKKIFSAANVPIEWESCDVSPIFVNGLTTIPDPAVQSITKNLVALKGPLATPIGKGHRSLNLTLRKTFGLFANVRPAKSIEGFKTTYENVDLVLIRENTEGEYSGIEHIVCPGVVQSIKLITRDASERVIRYAFEYARAIGRPRVIVVHKSTIQRLADGLFVNVAKELSKEYPDLTLETELIDNSVLKVVTNPSAYTDAVSVCPNLYGDILSDLNSGLSAGSLGLTPSANIGHKISIFEAVHGSAPDIAGQDKANPTALLLSSVMMLNHMGLTNHADQIQNAVLSTIASGPENRTGDLAGTATTSSFTEAVIKRL | soluble
